Laboratory results: patent US20200087373A1 (UNIVERSITY OF COPENHAGEN, published 2020)
Ends that are not written are not given here. * marks the point of attachment. Stearoyl = CCCCCCCCCCCCCCCCCC(=O)*; Palmitoyl = CCCCCCCCCCCCCCCC(=O)*; Myristoyl = CCCCCCCCCCCCCC(=O)*; Lauroyl = CCCCCCCCCCCC(=O)*; Dodecyl = CCCCCCCCCCCC*

B1: AT115 [hGIP(3-30)NH2-C18/30] (peptide)
peptide: EGTFISDYSIAMDKIHQQDFVNWLLAQK(Stearoyl)-NH2
B2: AT113 [hGIP(3-30)NH2-C18/3] (peptide)
peptide: Stearoyl-EGTFISDYSIAMDKIHQQDFVNWLLAQK-NH2
B3: AT110 [hGIP(3-30)NH2-C14/3] (peptide)
peptide: Myristoyl-EGTFISDYSIAMDKIHQQDFVNWLLAQK-NH2
B4: AT107 [hGIP(3-30)NH2[T5W; D15E; H18A]-C16/16] (peptide)
peptide: EGWFISDYSIAMEK(Palmitoyl)IAQQDFVNWLLAQK-NH2
modifications: N-terminus assumed
SMILES: CCCCCCCCCCCCCCCC(=O)NCCCC[C@H](NC(=O)[C@H](CCC(=O)O)NC(=O)[C@H](CCSC)NC(=O)[C@H](C)NC(=O)[C@@H](NC(=O)[C@H](CO)NC(=O)[C@H](Cc1ccc(O)cc1)NC(=O)[C@H](CC(=O)O)NC(=O)[C@H](CO)NC(=O)[C@@H](NC(=O)[C@H](Cc1ccccc1)NC(=O)[C@H](Cc1c[nH]c2ccccc12)NC(=O)CNC(=O)[C@@H](N)CCC(=O)O)[C@@H](C)CC)[C@@H](C)CC)C(=O)N[C@H](C(=O)N[C@@H](C)C(=O)N[C@@H](CCC(N)=O)C(=O)N[C@@H](CCC(N)=O)C(=O)N[C@@H](CC(=O)O)C(=O)N[C@@H](Cc1ccccc1)C(=O)N[C@H](C(=O)N[C@@H](CC(N)=O)C(=O)N[C@@H](Cc1c[nH]c2ccccc12)C(=O)N[C@@H](CC(C)C)C(=O)N[C@@H](CC(C)C)C(=O)N[C@@H](C)C(=O)N[C@@H](CCC(N)=O)C(=O)N[C@@H](CCCCN)C(N)=O)C(C)C)[C@@H](C)CC
B5: AT106 [hGIP(3-30)NH2-C16/30] (peptide)
peptide: EGTFISDYSIAMDKIHQQDFVNWLLAQK(Palmitoyl)-NH2
B6: AT111 [hGIP(3-30)NH2-C14/16] (peptide)
peptide: EGTFISDYSIAMDK(Myristoyl)IHQQDFVNWLLAQK-NH2
B7: AT117 [hGIP(3-30)NH2[H18K]-C16/18] (peptide)
peptide: EGTFISDYSIAMDKIK(Palmitoyl)QQDFVNWLLAQK-NH2
modifications: N-terminus assumed
SMILES: CCCCCCCCCCCCCCCC(=O)NCCCC[C@H](NC(=O)[C@@H](NC(=O)[C@H](CCCCN)NC(=O)[C@H](CC(=O)O)NC(=O)[C@H](CCSC)NC(=O)[C@H](C)NC(=O)[C@@H](NC(=O)[C@H](CO)NC(=O)[C@H](Cc1ccc(O)cc1)NC(=O)[C@H](CC(=O)O)NC(=O)[C@H](CO)NC(=O)[C@@H](NC(=O)[C@H](Cc1ccccc1)NC(=O)[C@@H](NC(=O)CNC(=O)[C@@H](N)CCC(=O)O)[C@@H](C)O)[C@@H](C)CC)[C@@H](C)CC)[C@@H](C)CC)C(=O)N[C@@H](CCC(N)=O)C(=O)N[C@@H](CCC(N)=O)C(=O)N[C@@H](CC(=O)O)C(=O)N[C@@H](Cc1ccccc1)C(=O)N[C@H](C(=O)N[C@@H](CC(N)=O)C(=O)N[C@@H](Cc1c[nH]c2ccccc12)C(=O)N[C@@H](CC(C)C)C(=O)N[C@@H](CC(C)C)C(=O)N[C@@H](C)C(=O)N[C@@H](CCC(N)=O)C(=O)N[C@@H](CCCCN)C(N)=O)C(C)C
B8: AT114 [hGIP(3-30)NH2-C18/16] (peptide)
peptide: EGTFISDYSIAMDK(Stearoyl)IHQQDFVNWLLAQK-NH2
B9: AT112 [hGIP(3-30)NH2-C14/30] (peptide)
peptide: EGTFISDYSIAMDKIHQQDFVNWLLAQK(Myristoyl)-NH2
B10: AT116 [hGIP(3-30)NH2-C12/18] (peptide)
peptide: EGTFISDYSIAMDKIK(Lauroyl)QQDFVNWLLAQK-NH2
modifications: N-terminus assumed
SMILES: CCCCCCCCCCCC(=O)NCCCC[C@H](NC(=O)[C@@H](NC(=O)[C@H](CCCCN)NC(=O)[C@H](CC(=O)O)NC(=O)[C@H](CCSC)NC(=O)[C@H](C)NC(=O)[C@@H](NC(=O)[C@H](CO)NC(=O)[C@H](Cc1ccc(O)cc1)NC(=O)[C@H](CC(=O)O)NC(=O)[C@H](CO)NC(=O)[C@@H](NC(=O)[C@H](Cc1ccccc1)NC(=O)[C@@H](NC(=O)CNC(=O)[C@@H](N)CCC(=O)O)[C@@H](C)O)[C@@H](C)CC)[C@@H](C)CC)[C@@H](C)CC)C(=O)N[C@@H](CCC(N)=O)C(=O)N[C@@H](CCC(N)=O)C(=O)N[C@@H](CC(=O)O)C(=O)N[C@@H](Cc1ccccc1)C(=O)N[C@H](C(=O)N[C@@H](CC(N)=O)C(=O)N[C@@H](Cc1c[nH]c2ccccc12)C(=O)N[C@@H](CC(C)C)C(=O)N[C@@H](CC(C)C)C(=O)N[C@@H](C)C(=O)N[C@@H](CCC(N)=O)C(=O)N[C@@H](CCCCN)C(N)=O)C(C)C
B11: AT130 [hGIP(3-30)NH2[D15E; H18A]-C12/30] (peptide)
peptide: EGTFISDYSIAMEKIAQQDFVNWLLAQK(Dodecyl)-NH2
B12: AT105 [hGIP(3-30)NH2-C16/16] (peptide)
peptide: EGTFISDYSIAMDK(Palmitoyl)IHQQDFVNWLLAQK-NH2

Molecular target: T1, human GIP receptor (human, UniProt P48546 22-466)
T1 sequence (looked up): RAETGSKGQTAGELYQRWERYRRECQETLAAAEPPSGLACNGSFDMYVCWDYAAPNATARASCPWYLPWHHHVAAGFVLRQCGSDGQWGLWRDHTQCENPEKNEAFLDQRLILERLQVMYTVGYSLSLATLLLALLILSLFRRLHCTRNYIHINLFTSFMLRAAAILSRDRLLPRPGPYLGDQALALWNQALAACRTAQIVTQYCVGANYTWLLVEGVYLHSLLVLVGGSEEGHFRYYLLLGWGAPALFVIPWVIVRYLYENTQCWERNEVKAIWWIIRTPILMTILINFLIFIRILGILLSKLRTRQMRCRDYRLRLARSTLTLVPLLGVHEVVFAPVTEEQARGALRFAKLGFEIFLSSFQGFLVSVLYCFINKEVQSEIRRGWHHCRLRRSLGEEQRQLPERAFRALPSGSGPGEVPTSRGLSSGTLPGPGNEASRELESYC
Assay: cell-based or functional assay

Binder	cAMP agonism, EC50 (log) [log M]	cAMP agonism, nM (EC50) [nM]	cAMP agonism, Emax [%]	cAMP antagonism, log (IC50) [log M]	cAMP antagonism, nM (IC50) [nM]
B1	-6.9	134	–	–	–
B2	-8	9.9	77	–	–
B3	-8.4	3.6	64	–	–
B4	-5.9	1300	23	-7.1	77
B5	-6.4	390	64	–	–
B6	–	–	0	-7.6	22
B7	–	–	0	-7.8	15
B8	-5.5	2960	39	-7.2	46
B9	-5.4	3950	29	–	–
B10	–	–	0	-7.9	12
B11	-5.1	8690	49	–	–
B12	-5.9	1140	34	-7.6	24
